Numbering of substitutions follows the chain as printed. Values belong to the binder of their own block, whether it stands above or below them.
Legend:
[1] = molecular target: human C-MET His tagged, monomeric (human) (UniProt P08581); assay: SPR Biacore, IgG captured, monomeric C-MET-His analyte
[2] = molecular target: cynomolgus monkey C-MET His tag, monomeric (cynomolgus monkey); assay: as above
[3] = molecular target: human C-MET on stably transfected CHO-K1 cells (human) (UniProt P08581); assay: flow cytometry, C-MET CHO-K1 cells
human C-MET on stably transfected CHO-K1 cells (human), sequence (P08581 25-1390 limits assumed): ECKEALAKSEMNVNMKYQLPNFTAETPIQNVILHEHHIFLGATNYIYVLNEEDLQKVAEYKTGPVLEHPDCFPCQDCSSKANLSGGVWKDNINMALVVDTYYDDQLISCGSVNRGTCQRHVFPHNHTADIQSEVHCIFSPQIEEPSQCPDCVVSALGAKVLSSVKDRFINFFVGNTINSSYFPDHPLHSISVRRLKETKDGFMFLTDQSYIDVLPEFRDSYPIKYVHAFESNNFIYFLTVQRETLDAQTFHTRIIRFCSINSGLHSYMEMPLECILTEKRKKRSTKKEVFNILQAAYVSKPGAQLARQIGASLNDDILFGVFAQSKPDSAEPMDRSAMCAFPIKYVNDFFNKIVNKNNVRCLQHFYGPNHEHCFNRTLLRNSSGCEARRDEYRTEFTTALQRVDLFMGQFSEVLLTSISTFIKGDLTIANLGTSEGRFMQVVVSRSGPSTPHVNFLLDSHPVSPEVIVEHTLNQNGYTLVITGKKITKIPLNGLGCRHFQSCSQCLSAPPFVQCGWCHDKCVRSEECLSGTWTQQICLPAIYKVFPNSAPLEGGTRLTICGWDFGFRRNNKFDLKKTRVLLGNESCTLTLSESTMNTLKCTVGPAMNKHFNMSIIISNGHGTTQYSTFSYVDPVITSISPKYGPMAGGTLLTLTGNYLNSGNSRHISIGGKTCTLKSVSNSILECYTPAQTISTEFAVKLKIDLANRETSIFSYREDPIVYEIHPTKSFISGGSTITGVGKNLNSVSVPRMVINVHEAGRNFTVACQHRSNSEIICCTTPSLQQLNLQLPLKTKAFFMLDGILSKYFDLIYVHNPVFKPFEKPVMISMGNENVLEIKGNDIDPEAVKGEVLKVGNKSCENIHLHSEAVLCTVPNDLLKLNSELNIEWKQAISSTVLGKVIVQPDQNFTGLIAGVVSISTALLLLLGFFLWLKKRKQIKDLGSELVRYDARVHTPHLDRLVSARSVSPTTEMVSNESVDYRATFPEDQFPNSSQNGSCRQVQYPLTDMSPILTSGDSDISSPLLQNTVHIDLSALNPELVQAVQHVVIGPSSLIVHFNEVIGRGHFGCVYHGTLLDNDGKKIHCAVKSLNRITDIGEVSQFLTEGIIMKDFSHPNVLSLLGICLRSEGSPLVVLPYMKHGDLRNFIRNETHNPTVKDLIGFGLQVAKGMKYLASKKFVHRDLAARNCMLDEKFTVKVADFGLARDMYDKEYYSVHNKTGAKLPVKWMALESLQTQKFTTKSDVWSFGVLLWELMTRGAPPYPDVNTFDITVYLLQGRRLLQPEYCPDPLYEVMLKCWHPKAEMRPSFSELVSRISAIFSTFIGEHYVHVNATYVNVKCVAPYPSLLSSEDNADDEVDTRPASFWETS

[4] = molecular target: cynomolgus monkey C-MET on stably transfected CHO-K1 cells (cynomolgus monkey); assay: flow cytometry, C-MET CHO-K1 cells
cynomolgus monkey C-MET on stably transfected CHO-K1 cells (cynomolgus monkey), sequence (A0M8R7 25-1381 S170N/I621T limits assumed): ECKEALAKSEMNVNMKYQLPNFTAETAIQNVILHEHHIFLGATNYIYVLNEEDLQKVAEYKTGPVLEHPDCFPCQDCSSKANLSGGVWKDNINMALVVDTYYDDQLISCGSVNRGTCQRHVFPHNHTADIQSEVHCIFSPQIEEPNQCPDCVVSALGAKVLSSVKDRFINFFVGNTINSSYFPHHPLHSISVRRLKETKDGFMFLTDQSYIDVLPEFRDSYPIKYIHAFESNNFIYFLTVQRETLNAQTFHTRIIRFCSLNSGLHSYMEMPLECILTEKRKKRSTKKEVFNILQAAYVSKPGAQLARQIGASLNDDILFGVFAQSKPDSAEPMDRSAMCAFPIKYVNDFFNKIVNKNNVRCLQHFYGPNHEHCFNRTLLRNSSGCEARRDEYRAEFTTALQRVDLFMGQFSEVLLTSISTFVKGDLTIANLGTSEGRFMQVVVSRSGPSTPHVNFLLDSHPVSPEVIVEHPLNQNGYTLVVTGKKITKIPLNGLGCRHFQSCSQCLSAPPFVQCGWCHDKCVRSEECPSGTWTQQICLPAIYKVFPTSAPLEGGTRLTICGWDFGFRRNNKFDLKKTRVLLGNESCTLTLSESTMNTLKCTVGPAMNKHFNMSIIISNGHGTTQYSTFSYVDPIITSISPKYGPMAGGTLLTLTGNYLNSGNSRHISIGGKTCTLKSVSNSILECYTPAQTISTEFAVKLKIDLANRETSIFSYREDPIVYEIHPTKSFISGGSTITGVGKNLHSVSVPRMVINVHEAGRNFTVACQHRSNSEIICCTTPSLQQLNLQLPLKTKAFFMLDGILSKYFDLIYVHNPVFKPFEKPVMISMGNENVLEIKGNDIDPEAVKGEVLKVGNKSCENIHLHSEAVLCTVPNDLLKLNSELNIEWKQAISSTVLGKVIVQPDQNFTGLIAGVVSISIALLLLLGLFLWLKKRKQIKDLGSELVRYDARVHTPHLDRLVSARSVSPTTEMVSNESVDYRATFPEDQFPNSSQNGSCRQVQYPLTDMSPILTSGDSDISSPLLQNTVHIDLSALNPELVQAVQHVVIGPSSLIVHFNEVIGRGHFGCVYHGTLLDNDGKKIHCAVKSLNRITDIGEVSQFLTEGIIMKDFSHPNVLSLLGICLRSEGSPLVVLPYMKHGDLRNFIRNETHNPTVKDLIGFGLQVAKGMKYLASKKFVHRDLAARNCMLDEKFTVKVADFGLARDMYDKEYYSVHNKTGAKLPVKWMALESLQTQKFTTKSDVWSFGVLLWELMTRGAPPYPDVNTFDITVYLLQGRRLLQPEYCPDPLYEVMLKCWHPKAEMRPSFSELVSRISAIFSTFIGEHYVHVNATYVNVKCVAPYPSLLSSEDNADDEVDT

[5] = molecular target: cynomolgus monkey C-MET His tag, monomeric (cynomolgus monkey); assay: SPR Biacore, monomeric cyno against monomeric human C-MET

cynomolgus monkey C-MET His tag, monomeric (cynomolgus monkey), sequence (A0M8R7 25-932 S170N/I621T): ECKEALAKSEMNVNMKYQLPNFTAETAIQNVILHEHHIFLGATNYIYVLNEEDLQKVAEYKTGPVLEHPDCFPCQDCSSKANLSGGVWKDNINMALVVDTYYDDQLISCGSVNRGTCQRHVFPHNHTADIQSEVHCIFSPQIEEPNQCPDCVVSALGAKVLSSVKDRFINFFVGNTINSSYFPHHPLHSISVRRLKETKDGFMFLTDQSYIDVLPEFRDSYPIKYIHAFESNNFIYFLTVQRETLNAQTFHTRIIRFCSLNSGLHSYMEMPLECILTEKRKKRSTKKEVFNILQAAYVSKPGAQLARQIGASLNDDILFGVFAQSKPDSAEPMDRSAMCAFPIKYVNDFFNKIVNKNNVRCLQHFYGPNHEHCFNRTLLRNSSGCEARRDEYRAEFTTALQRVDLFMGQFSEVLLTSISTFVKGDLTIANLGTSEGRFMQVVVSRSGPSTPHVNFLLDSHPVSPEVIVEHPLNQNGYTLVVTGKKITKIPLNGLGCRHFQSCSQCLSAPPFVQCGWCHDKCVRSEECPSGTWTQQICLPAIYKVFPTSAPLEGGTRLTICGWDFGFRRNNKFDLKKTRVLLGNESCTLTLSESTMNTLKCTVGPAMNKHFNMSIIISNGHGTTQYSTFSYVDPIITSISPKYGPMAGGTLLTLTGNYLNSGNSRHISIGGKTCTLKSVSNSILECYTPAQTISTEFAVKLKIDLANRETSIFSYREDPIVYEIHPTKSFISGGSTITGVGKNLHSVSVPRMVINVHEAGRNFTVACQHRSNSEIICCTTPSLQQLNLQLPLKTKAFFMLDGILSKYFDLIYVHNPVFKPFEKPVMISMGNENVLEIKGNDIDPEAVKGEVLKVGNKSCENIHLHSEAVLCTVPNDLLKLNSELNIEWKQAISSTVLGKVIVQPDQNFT
human C-MET His tagged, monomeric (human), sequence (P08581 25-932): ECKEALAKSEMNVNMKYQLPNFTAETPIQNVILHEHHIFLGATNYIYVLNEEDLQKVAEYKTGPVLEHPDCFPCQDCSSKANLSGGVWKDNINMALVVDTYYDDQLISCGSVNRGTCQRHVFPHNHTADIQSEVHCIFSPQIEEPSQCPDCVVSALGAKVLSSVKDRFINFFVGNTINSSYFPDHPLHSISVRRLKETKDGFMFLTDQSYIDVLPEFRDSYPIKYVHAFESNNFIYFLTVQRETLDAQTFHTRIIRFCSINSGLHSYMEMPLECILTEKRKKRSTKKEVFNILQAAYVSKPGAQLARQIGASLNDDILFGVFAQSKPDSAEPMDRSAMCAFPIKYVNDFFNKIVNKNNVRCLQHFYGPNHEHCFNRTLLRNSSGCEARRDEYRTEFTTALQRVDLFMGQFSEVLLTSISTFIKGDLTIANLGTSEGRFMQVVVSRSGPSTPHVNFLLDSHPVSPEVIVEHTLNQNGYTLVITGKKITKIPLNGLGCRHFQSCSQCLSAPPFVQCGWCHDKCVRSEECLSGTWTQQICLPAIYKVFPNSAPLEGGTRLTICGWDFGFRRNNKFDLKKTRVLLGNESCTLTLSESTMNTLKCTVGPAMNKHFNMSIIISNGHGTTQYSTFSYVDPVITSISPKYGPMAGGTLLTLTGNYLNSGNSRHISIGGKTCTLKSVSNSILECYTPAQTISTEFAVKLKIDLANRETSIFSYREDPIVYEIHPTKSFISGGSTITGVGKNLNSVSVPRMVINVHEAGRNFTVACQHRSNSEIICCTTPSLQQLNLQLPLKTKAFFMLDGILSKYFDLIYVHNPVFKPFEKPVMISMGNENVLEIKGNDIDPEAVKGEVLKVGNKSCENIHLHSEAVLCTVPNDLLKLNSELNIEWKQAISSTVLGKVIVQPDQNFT

Kd [1]: 2 nM | koff [1]: 0.00015 s⁻¹ | kon [1]: 74000 M⁻¹ s⁻¹ | Kd [2]: 1.5 nM | koff [2]: 0.00023 s⁻¹ | kon [2]: 160000 M⁻¹ s⁻¹ | EC50 [3]: 2.33 nM | maximum MFI, fold over Isotype IgG4 background [3]: > 10 fold | EC50 [4]: 0.28 nM | maximum MFI, fold over Isotype IgG4 background [4]: > 10 fold
B1: 09A12 (antibody, IgG4, V domains shown)
VH: QVQLVQSGAEVKKPGASVKVSCKASGYTFTSYSMHWVRQAPGQGLEWMGWINPNGGLTNYAQKFRGRVTMTRDTSTSTVYMELSSLRSEDTAVYYCAREEITTEFDYWGQGTLVTVSS
VL: EIVLTQSPGTLSLSPGERATLSCRASQSVSSYAQSYLHWYQQKPGQAPRLLIYRASTRETGIPDRFSGSGSGTDFTLTISRLEPEDFAVYYCQQSKESPLTFGGGTKVEIK

Kd [1]: 0.24 nM | koff [1]: 1.3e-05 s⁻¹ | kon [1]: 56000 M⁻¹ s⁻¹ | Kd [2]: 0.17 nM | koff [2]: 1.6e-05 s⁻¹ | kon [2]: 94000 M⁻¹ s⁻¹ | EC50 [3]: 7.44 nM | maximum MFI, fold over Isotype IgG4 background [3]: > 10 fold | EC50 [4]: 1.74 nM | maximum MFI, fold over Isotype IgG4 background [4]: > 10 fold | cyno C-MET affinity, fold of the human C-MET affinity [5]: < 2 fold
B2: 07A01 (antibody, IgG4, V domains shown)
VH: B1 VH with T28I, S33T, T58A, N59S, R65Q, E99S, F105Q
VL: B1 VL with S30D, Q34N, A55G, T60S
